The results in this text go back to publication PMC11500415, “Chemical inhibition of stomatal differentiation by perturbation of the master-regulatory bHLH heterodimer via an ACT-Like domain” (Nature Communications, 2024).

Values joined by “and” are separate entries in the source; they are usually repeats but may differ in a detail not shown here. Equal entries are not always repeated.

Assay [1] concerns Arabidopsis wild-type (WT) seedlings. Description: Stomatal development bioassay, seedlings in liquid culture. It is filed as in vivo. As to conditions: 50 μM. The procedure: Arabidopsis accession Columbia (Col-0) was used as wild-type. […] Their genotype and transcript reduction were confirmed. The presence of transgenes/mutant alleles were confirmed by genotyping. For liquid culture with Stomidazolone (AYSJ929, compound 3), the analogs (AYSJ1059 (compound 5) and AYSJ1061 (compound 6)), degraded compound lzx103 (compound 4), and SIM3* (compound 7), all compounds were dissolved in dimethyl sulfoxide (DMSO, Molecular biology grade, Fujifilm Wako, Japan 046-21981), Col-0 seeds were sown in 96-well plates (TL5003; True Line) containing 95 μL of 1/2 MS media containing 0.5% sucrose with rotary shaking at 140 rpm under continuous light at 22 °C. Five μL of compounds were dissolved in DMSO at 10 mM and diluted with liquid 1/2 MS media to 1 mM and added on 1-day-old seedlings (final concentration, 50 μM). Seedlings were incubated for 8 days, and at day 9 seedling abaxial cotyledons were observed through confocal microscopy. For liquid culture of scrm-D_S343 and scrm-D_S423, 1/2 MS liquid media without sucrose was used. For the solid culture, 0, 20, 50 or 100 μM Stomidazolone were solidified with low-melting agarose (5805S, PrimeGelTM Agarose LMT 1-20 K, TAKARA Bio). Briefly, 1/2 MS salt, 0.5% sucrose, and 0.8% low melting agarose were mixed in water and autoclaved. After cooling the medium at around 30 °C, Stomidazolone (500x, dissolved in DMSO) was added and poured into 90 mm petri dishes (Asnol Petri Dish JP φ90 x 15 mm, 3-1491-01, AS ONE). Col-0 seeds were sown on Stomidazolone-containing 1/2 MS agarose media and grown under continuous light for 9 days.
For confocal microscopy, cell peripheries of seedlings were visualized with propidium iodide (Sigma, P4170). Images were acquired using LSM800 or LSM700 (Zeiss) using a 20x lens. The GFP, YFP reporter and PI signals were detected with excitation at 488 nm and an emission filter of 410 to 546 nm, at 488 nm and an emission filter of 410 to 546 nm, and with excitation at 561 nm and 582–617 nm emission range, respectively. Raw data were collected with 1024 × 1024 pixel images. For qualitative image presentation, Adobe Photoshop CC was used to trim and uniformly adjust the contrast/brightness.
For quantitative analysis of the abaxial leaf epidermis, confocal images were taken on the days after germination as indicated in the Figure legends. Preparation of images was done as described previously[32],[70]. For counting epidermal cell types, stomatal density, stomatal precursor cells (meristemoids), total stomata-lineage cells (stomata and meristemoids) were calculated by counting cell types in an area of 0.4 mm^2 (0.63 mm × 0.63 mm) and plotted as per mm^2. A series of Z-stack confocal images was obtained to obtain images covering the epidermis and capturing GFP/YFP signal from the reporter lines. The area and the number of epidermal cells were quantified by using FIJI-ImageJ. Statistical analyses were performed using R ver. 4.0.2. Sample sizes (n) are indicated and defined in each legend. For the multiple sample comparison, 1-way ANOVA was performed followed by a post hoc Tukey HSD test. For the two-sample comparison, Student’s T-test was performed. Graphs were generated using R ggplot2 package. For all boxplots, each box represents IQR (interquartile range), in which top, middle line, and bottom indicating 75, 50, and 25 percentiles, respectively, and the bar representing maximum to minimal values. Each magenta dot represents jittered individual data point. The datapoints that go beyond the bar are outliers, which are indicated as black dots. If the data point is greater than Q3 + 1.5*IQR (above the third quartile is greater than 1.5 times of the interquartile range) or less than Q1 − 1.5*IQR, that data point is classified as outlier. The color of Boxplot graph was based on ColorBrewer.org. The value of n, the number of each experiment or samples, the means of error bars, and how statistical significance was defined are indicated in a relevant figure legend. […]

In assay [2] the test system is Commelina benghalensis stomatal opening induced by light. Description: Measurement of stomatal opening. As to conditions: leaf discs 1-6. Type of assay: in vivo. The procedure: The experiments were performed as described previously[30],[68]. Briefly, Stomidazolone or ABA were added to a multi-well plate with basal buffer [5 mM MES/bistrispropane (pH 6.5), 50 mM KCl, and 0.1 mM CaCl2] to be diluted to a final concentration of 50 or 20 µM, respectively. C. benghalensis plants were incubated in the dark overnight; then, 4 mm diameter leaf discs were excised from fully expanded leaves using a hole punch (Biopsy Punch, Kai Medical). Samples were immersed in a basal buffer containing compounds for 30 min before being exposed to light (150 µmol m^−2 s^−1 red light and 50 µmol m^−2 s^−1 blue light) for 3 h. The stomatal apertures were observed using a stereoscopic microscope (BX43; Olympus). The microscopic images were acquired with a charge-coupled device (CCD) camera (DP27; Olympus), followed by autofocus image processing using cellSens standard software (Olympus). Measurement of stomatal apertures of C. benghalensis was performed by using an automation program, DeepStomata[69].

In assay [3] the target is T1, SCREAM (SCRM), recombinant full-length protein (1-494) (A. thaliana, UniProt Q9LSE2 1-494).
T1 construct: SCRM (ICE1), A. thaliana, residues 1-494; called full-length in the results; The methods describe thrombin removal of GST for all recombinant proteins; For the BLI runs of SCRM with MUTE one partner must have kept GST (anti-GST probes); also called ICE1; source: E. coli BL21, purified (glutathione resin, thrombin digestion, Superdex-200); not shown: GST, N-terminal, cleaved
T1 sequence (looked up): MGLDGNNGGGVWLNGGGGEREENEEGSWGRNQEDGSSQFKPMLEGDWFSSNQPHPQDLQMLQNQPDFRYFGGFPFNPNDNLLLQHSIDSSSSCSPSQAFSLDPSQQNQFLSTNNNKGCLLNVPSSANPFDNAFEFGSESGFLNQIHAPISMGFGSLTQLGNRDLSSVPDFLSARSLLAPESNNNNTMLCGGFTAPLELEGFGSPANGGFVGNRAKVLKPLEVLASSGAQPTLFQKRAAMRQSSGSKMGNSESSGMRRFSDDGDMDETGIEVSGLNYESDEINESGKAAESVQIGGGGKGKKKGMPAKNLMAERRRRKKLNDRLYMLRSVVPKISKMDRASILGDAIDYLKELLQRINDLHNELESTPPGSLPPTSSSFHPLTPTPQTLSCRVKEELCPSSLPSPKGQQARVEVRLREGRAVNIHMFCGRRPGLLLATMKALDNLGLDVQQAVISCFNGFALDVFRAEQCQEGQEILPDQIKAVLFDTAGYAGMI
The assay can be described thus: BLI; SCRM with MUTE or MUTE mutants, no compound; Octet Red96, anti-GST probes loaded with 500 nM GST-tagged protein; 30 °C; 1x PBS, 2% DMSO, 0.02% Tween20; 1:1 model; KD (SS) from steady-state analysis. As to conditions: both partners purified. Background: BLI is a label-free optical method that tracks binding on a fibre tip over time.

Assay [4] addresses T1, SCREAM (SCRM), recombinant full-length …. The assay can be described thus: BLI; SCRM with MUTE in the presence of AYSJ1061 (6); Octet Red96, anti-GST probes loaded with 500 nM GST-tagged protein; 30 °C; 1x PBS, 2% DMSO, 0.02% Tween20; 1:1 model; KD (SS) from steady-state analysis. As to conditions: both partners purified.
The target is the same in assay [5]. Description: BLI; SCRM with MUTE or MUTE mutants in the presence of Stomidazolone (3) (MUTE pre-incubated); Octet Red96, anti-GST probes loaded with 500 nM GST-tagged protein; 30 °C; 1x PBS, 2% DMSO, 0.02% Tween20; 1:1 model; KD (SS) from steady-state analysis. As to conditions: both partners purified.
Assay [6] shares this target. Description: BLI; SCRM with MUTE in the presence of AYSJ1059 (5); Octet Red96, anti-GST probes loaded with 500 nM GST-tagged protein; 30 °C; 1x PBS, 2% DMSO, 0.02% Tween20; 1:1 model; KD (SS) from steady-state analysis. As to conditions: both partners purified.

Regarding `N=C(NS(=O)(=O)c1ccccc1)c1ccccc1` [lzx103], the “effect on stomatal development (in words)” value in assay [1] (WT seedlings, liquid culture) is on record as “did not cause any effects”. In assay [1] (WT, single seedlings n=8 (Fig. S3d), listed as Izx-103), the “Number of stomata per 1 mm2 of cotyledon abaxial epidermis” value was 199 per 1 mm2 and 211 per 1 mm2 and 202 per 1 mm2 and 216 per 1 mm2 and 194 per 1 mm2 and 192 per 1 mm2 and 175 per 1 mm2.
As for `O=C1C(c2ccccc2)=NC(NS(=O)(=O)c2ccccc2)(c2ccccc2)N1S(=O)(=O)c1ccccc1` (racemic) [AYST929], the “stomatal movement, mean from 2 images from 1 leaf disc” value in assay [2] (AYST929 50 µM) was 12.3654 and 10.3065 and 11.5398 and 6.9444 and 13.0998 and 7.007.
Turning to `CC1=CC(=O)CC(C)(C)C1(O)/C=C/C(C)=C\C(=O)O` (centres unmarked) [ABA, reference compound], the “stomatal movement, value per image” value in assay [2] (ABA 20 µM, 2 images per leaf disc) was determined as 0. Further, in assay [2] (ABA 20 µM), the “stomatal movement, mean from 2 images from 1 leaf disc” value is recorded as 0.

B1: MUTE, recombinant full-length protein (1-202), as used in BLI with SCRM (natural protein, A. thaliana, UniProt Q9M8K6 1-202, looked up)
chain: MSHIAVERNRRRQMNEHLKSLRSLTPCFYIKRGDQASIIGGVIEFIKELQQLVQVLESKKRRKTLNRPSFPYDHQTIEPSSLGAATTRVPFSRIENVMTTSTFKEVGACCNSPHANVEAKISGSNVVLRVVSRRIVGQLVKIISVLEKLSFQVLHLNISSMEETVLYFFVVKIGLECHLSLEELTLEVQKSFVSDEVIVSTN
notes: BLI probes were anti-GST and loaded with 500 nM GST-tagged protein; source: E. coli BL21, purified (glutathione resin)
The Kd is the constant that tells how readily two partners part at equilibrium. What is called koff is the first-order rate constant of dissociation. Usually kon stands for a measure of how fast the partners come together. As to B1, the equilibrium dissociation constant (Kd) in assay [3] worked out at 6.8 ± 0.5 nM; in assay [4], 12.8 ± 0.8 nM; in assay [5] it was 755 ± 9.5 nM; in assay [6] it was 8.8 ± 0.6 nM. Also, the koff was 0.000147 s⁻¹ in assay [3], 0.000234 s⁻¹ in assay [4], 0.00859 s⁻¹ in assay [5] and 0.000188 s⁻¹ in assay [6]. Moreover, the on-rate constant (kon) amounted to 24200 M⁻¹ s⁻¹ in assay [3], 18200 M⁻¹ s⁻¹ in assay [4], 11400 M⁻¹ s⁻¹ in assay [5] and 21300 M⁻¹ s⁻¹ in assay [6].

B2: MUTE_R133A_R134A_E162A_E163A, recombinant (natural protein, A. thaliana, UniProt Q9M8K6 1-202, looked up)
chain: MSHIAVERNRRRQMNEHLKSLRSLTPCFYIKRGDQASIIGGVIEFIKELQQLVQVLESKKRRKTLNRPSFPYDHQTIEPSSLGAATTRVPFSRIENVMTTSTFKEVGACCNSPHANVEAKISGSNVVLRVVSAAIVGQLVKIISVLEKLSFQVLHLNISSMAATVLYFFVVKIGLECHLSLEELTLEVQKSFVSDEVIVSTN
notes: MUTE, A. thaliana, with R133A, R134A, E162A and E163A; source: E. coli BL21, purified (glutathione resin)
For the molecule B2, in assay [3], the Kd amounted to 26.5 ± 3.7 nM, the off-rate constant (koff) was 0.000414 s⁻¹ and the on-rate constant (kon) was found to be 15600 M⁻¹ s⁻¹. For the same molecule, in assay [5], the equilibrium dissociation constant (Kd) worked out at 96.5 ± 12.8 nM, the koff is 0.000336 s⁻¹ and the kon was 3480 M⁻¹ s⁻¹.

B3: MUTE_E162A_E163A, recombinant (natural protein, A. thaliana, UniProt Q9M8K6 1-202, looked up)
chain: MSHIAVERNRRRQMNEHLKSLRSLTPCFYIKRGDQASIIGGVIEFIKELQQLVQVLESKKRRKTLNRPSFPYDHQTIEPSSLGAATTRVPFSRIENVMTTSTFKEVGACCNSPHANVEAKISGSNVVLRVVSRRIVGQLVKIISVLEKLSFQVLHLNISSMAATVLYFFVVKIGLECHLSLEELTLEVQKSFVSDEVIVSTN
notes: MUTE, A. thaliana, with E162A and E163A; source: E. coli BL21, purified (glutathione resin)
As to B3, in assay [3], the Kd was found to be 11.5 ± 2.6 nM, the off-rate constant (koff) was determined as 0.000334 s⁻¹ and the on-rate (kon) is 29000 M⁻¹ s⁻¹. For the same molecule, in assay [5], the dissociation constant (Kd) was determined as 30.5 ± 4.8 nM, the off-rate constant (koff) came out at 0.000634 s⁻¹ and the kon was found to be 20700 M⁻¹ s⁻¹.

B4: MUTE_R133A_R134A, recombinant (natural protein, A. thaliana, UniProt Q9M8K6 1-202, looked up)
chain: MSHIAVERNRRRQMNEHLKSLRSLTPCFYIKRGDQASIIGGVIEFIKELQQLVQVLESKKRRKTLNRPSFPYDHQTIEPSSLGAATTRVPFSRIENVMTTSTFKEVGACCNSPHANVEAKISGSNVVLRVVSAAIVGQLVKIISVLEKLSFQVLHLNISSMEETVLYFFVVKIGLECHLSLEELTLEVQKSFVSDEVIVSTN
notes: MUTE, A. thaliana, with R133A and R134A; source: E. coli BL21, purified (glutathione resin)
Regarding B4, in assay [3], the Kd was found to be 22.5 ± 1.8 nM, the dissociation rate constant (koff) is 0.000256 s⁻¹ and the on-rate constant (kon) turned out to be 11300 M⁻¹ s⁻¹. In assay [5], the equilibrium dissociation constant (Kd) was 62.5 ± 8.2 nM, the dissociation rate constant (koff) was 0.000834 s⁻¹ and the on-rate (kon) stood at 13300 M⁻¹ s⁻¹.
